Reference: patent publication US20220135684A1 (published 2022)
Residue numbers refer to the chain shown, from its start. Read-outs that look alike come from different tables or passages of the source. Blank lines part the entries; values can stand above or below the binder they belong to.

Legend:
human CD28 [1] = target: T1, human CD28 (human, UniProt P10747 19-152); test: Octet; avid
cynomolgus PDL1 antigen [2] = target: T2, cynomolgus PDL1 antigen (cynomolgus, UniProt G7PSE7 19-238); test: SPR (Biacore); EXP2
human CD28 [3] = target: T1, human CD28; test: -; scFv VHVL in 1+1 Fab-scFv-Fc bsAb
human CD28 [4] = target: T1, human CD28; test: BLI (Octet); average of HIS1K and SA capture
human CD28 [5] = target: T1, human CD28
cynomolgus PDL1 antigen [6] = target: T2, cynomolgus PDL1 antigen; test: SPR (Biacore); EXP1
human PDL1 antigen [7] = target: T3, human PDL1 antigen (human, UniProt Q9NZQ7 19-238)
human PDL1 antigen [8] = target: T3, human PDL1 antigen; test: SPR (Biacore); EXP1

Kd (human CD28 [1]): 14.5 nM
B1: XENP28428 (antibody, V domains shown)
VH: EVQLLESGGGLVQPGGSLRLSCAASGFTFSSYAMSWVRQAPGKGLEWVSTISGSGDSTYYADSVKGRFTISRDNSKNTLYLQMNSLRAEDTAVYYCAKSGPGLRQVGFDYWGQGTLVTVSS
VL: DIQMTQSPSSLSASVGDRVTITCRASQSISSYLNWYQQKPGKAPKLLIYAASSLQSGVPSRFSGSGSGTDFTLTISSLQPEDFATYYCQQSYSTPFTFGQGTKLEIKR

Kd (cynomolgus PDL1 antigen [2]): 1.7 nM
B2: αPDL1×αCD28 bsAb with PDL1 binding domain 2G4_H1.12_L1.66 and CD28 binding domain 1A7_H1.14_L1.71 (bispecific antibody)
heavy: EVQLLESGGGLVQPGGSLRLSCAASGFTFSVYDMSWVRQAPGKRLEWVSTISSGGSFTHYPDSVKGRFTISRDNSKNTLYLQMNSLRAEDTAVYYCVRRSLDWYFDVWGAGTTVTVSSASTKGPSVFPLAPSSKSTSGGTAALGCLVKDYFPEPVTVSWNSGALTSGVHTFPAVLQSSGLYSLSSVVTVPSSSLGTQTYICNVNHKPSDTKVDKKVEPKSCDKTHTCPPCPAPPVAGPSVFLFPPKPKDTLMISRTPEVTCVVVDVKHEDPEVKFNWYVDGVEVHNAKTKPREEEYNSTYRVVSVLTVLHQDWLNGKEYKCKVSNKALPAPIEKTISKAKGQPREPQVYTLPPSREEMTKNQVSLTCDVSGFYPSDIAVEWESDGQPENNYKTTPPVLDSDGSFFLYSKLTVDKSRWEQGDVFSCSVMHEALHNHYTQKSLSLSPGK
scFv-Fc: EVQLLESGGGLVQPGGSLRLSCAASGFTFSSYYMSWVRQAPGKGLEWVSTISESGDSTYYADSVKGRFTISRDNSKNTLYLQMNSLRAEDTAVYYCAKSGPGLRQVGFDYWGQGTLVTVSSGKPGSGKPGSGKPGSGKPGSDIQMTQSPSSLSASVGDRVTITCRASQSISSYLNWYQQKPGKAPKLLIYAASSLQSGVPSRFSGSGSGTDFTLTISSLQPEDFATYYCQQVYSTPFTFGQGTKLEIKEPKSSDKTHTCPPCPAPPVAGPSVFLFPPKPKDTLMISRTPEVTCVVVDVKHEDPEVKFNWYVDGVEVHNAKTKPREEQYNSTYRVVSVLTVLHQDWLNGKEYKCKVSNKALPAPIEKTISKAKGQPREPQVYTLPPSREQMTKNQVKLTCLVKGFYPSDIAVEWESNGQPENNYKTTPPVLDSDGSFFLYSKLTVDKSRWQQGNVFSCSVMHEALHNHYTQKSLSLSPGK
light: EIVLTQSPGTLSLSPGERATLSCRVSSSIQSTNLHWYQQKPGQSPRPLIYGTSNLATGVPVRFSGSGSGTDYTLTISRLEPEDFAVYYCQQWSSYPLYTFGGGTKVEIKRTVAAPSVFIFPPSDEQLKSGTASVVCLLNNFYPREAKVQWKVDNALQSGNSQESVTEQDSKDSTYSLSSTLTLSKADYEKHKVYACEVTHQGLSSPVTKSFNRGEC

Kd (human CD28 [3]): 91.6 nM
Kd (human CD28 [4]): 91.6 nM
B3: XENP37560 (bispecific antibody)
heavy: B2 heavy with V31S, L101G
scFv-Fc: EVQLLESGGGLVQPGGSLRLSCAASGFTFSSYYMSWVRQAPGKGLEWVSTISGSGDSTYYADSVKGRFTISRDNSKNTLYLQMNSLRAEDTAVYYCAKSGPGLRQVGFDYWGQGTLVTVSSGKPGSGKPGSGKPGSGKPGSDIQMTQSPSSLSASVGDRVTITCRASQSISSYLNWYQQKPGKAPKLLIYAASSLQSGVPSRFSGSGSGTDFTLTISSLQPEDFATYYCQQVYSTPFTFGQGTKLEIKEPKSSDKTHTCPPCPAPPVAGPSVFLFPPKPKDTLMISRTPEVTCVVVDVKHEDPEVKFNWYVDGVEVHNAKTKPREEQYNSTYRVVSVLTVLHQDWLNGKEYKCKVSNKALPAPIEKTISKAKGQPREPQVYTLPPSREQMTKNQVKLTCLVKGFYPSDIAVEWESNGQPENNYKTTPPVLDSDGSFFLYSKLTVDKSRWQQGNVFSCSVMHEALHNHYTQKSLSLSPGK
light: B2 light with Q30S, T32S, T57S

Kd (human CD28 [5]): 180 nM
Kd (cynomolgus PDL1 antigen [6]): 0.38 nM
B4: XENP38514 (bispecific antibody)
heavy: B2 heavy
scFv-Fc: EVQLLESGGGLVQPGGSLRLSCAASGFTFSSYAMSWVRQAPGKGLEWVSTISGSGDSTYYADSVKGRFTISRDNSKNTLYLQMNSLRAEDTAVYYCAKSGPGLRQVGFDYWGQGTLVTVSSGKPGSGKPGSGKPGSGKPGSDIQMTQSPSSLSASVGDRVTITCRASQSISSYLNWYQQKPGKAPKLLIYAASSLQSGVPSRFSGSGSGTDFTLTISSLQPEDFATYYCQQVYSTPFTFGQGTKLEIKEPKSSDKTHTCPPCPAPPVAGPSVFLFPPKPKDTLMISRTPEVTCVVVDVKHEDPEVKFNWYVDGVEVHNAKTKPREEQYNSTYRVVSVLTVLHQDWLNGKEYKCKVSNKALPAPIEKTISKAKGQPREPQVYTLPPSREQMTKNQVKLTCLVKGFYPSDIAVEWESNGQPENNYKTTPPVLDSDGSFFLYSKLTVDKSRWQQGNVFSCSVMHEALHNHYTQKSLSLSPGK
light: B2 light with N54V

Kd (cynomolgus PDL1 antigen [2]): 0.8 nM
B5: αPDL1×αCD28 bsAb with PDL1 binding domain 2G4_H1.12_L1.14 and CD28 binding domain 1A7_H1.14_L1.71 (bispecific antibody)
heavy: B2 heavy
scFv-Fc: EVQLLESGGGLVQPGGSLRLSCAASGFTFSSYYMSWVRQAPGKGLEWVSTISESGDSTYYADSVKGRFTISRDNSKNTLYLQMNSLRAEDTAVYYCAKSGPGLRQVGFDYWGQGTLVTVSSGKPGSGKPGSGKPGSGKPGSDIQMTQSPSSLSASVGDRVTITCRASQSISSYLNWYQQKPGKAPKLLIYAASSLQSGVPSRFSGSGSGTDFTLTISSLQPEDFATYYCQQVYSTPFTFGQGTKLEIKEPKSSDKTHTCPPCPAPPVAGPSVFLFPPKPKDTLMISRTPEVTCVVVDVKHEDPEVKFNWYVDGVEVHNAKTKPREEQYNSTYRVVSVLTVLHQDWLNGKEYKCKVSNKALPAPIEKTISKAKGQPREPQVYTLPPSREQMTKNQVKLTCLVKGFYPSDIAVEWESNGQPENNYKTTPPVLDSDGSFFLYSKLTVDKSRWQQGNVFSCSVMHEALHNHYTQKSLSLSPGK
light: B2 light with T32S, T57S

Kd (human PDL1 antigen [7]): 2.6 nM
Kd (human PDL1 antigen [8]): 2.6 nM
Kd (cynomolgus PDL1 antigen [6]): 2.2 nM
B6: XENP37559 (bispecific antibody)
heavy: B2 heavy with V31S, L101G
scFv-Fc: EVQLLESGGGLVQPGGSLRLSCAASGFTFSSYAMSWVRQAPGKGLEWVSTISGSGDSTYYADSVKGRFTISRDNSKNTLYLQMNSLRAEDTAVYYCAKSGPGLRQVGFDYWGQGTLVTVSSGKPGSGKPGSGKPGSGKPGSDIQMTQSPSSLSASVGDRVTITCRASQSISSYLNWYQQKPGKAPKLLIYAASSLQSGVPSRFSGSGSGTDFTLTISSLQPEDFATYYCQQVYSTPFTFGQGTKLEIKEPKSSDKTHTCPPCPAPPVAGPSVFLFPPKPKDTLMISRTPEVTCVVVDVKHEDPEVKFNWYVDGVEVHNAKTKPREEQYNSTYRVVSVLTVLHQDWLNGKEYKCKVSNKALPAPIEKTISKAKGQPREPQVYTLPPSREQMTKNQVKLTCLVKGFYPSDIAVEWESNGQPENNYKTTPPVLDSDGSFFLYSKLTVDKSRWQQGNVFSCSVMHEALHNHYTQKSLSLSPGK
light: B2 light with Q30S, T32S, T57S

Kd (human CD28 [3]): 229 nM
Kd (human CD28 [4]): 229 nM
B7: XENP36233 (bispecific antibody)
heavy: B2 heavy with V31S, L101G
scFv-Fc: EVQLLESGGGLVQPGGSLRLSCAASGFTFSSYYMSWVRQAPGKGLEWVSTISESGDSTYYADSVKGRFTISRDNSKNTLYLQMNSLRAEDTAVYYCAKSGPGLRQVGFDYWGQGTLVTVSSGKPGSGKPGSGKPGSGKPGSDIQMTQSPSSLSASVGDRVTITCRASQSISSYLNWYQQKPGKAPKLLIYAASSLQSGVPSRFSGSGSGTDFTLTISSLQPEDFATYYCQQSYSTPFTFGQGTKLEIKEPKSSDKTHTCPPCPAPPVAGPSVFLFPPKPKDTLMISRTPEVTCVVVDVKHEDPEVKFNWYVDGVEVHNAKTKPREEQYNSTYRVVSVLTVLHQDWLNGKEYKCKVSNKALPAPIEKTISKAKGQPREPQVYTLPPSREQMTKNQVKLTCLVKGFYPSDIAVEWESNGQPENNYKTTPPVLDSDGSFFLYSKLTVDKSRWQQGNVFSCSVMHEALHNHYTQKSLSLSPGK
light: B2 light with Q30S, T32S, T57S

Kd (cynomolgus PDL1 antigen [2]): 1.5 nM
B8: αPDL1×αCD28 bsAb with PDL1 binding domain 2G4_H1.12_L1.68 and CD28 binding domain 1A7_H1.14_L1.71 (bispecific antibody)
heavy: B2 heavy
scFv-Fc: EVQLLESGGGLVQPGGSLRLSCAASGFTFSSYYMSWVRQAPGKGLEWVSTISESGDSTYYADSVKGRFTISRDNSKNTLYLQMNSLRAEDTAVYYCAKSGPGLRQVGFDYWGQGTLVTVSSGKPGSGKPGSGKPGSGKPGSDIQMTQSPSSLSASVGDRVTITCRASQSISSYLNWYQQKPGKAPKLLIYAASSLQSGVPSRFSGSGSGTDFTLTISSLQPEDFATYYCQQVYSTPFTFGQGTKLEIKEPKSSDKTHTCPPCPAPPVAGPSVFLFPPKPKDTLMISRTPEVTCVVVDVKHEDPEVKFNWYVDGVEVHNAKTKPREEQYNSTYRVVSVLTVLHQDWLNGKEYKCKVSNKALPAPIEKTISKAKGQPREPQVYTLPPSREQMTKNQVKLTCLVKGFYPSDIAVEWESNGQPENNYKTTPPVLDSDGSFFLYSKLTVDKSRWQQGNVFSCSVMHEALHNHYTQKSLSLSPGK
light: B2 light with T57S
